Results published in publication PMC5065529, “Wnt Signalosome Assembly by DEP Domain Swapping of Dishevelled” (Molecular Cell, 2016).

B1: SNAP-FZD5 (Frizzled 5), wild type [human] / DEP_(414–507)-GFP, minimal DEP domain of DVL2 [human] (parent)
chain 1: GRGLSVHTDMASVTKAMAAPESGLEVRDRMWLKITIPNAFLGSDVVDWLYHHVEGFPERREARKYASGLLKAGLIRHTVNKITFSEQCYYVFGD
chain 2: ASKAPVCQEITVPMCRGIGYNLTHMPNQFNHDTQDEAGLEVHQFWPLVEIQCSPDLRFFLCSMYTPICLPDYHKPLPPCRSVCERAKAGCSPLMRQYGFAWPERMSCDRLPVLGRDAEVLCMDYNRSEATTAPPRPFPAKPTLPGPPGAPASGGECPAGGPFVCKCREPFVPILKESHPLYNKVRTGQVPNCAVPCYQPSFSADERTFATFWIGLWSVLCFISTSTTVATFLIDMERFRYPERPIIFLSACYLCVSLGFLVRLVVGHASVACSREHNHIHYETTGPALCTIVFLLVYFFGMASSIWWVILSLTWFLAAGMKWGNEAIAGYAQYFHLAAWLIPSVKSITALALSSVDGDPVAGICYVGNQNLNSLRGFVLGPLVLYLLVGTLFLLAGFVSLFRIRSVIKQGGTKTDKLEKLMIRIGIFTLLYTVPASIVVACYLYEQHYRESWEAALTCACPGHDTGQPRAKPEYWVLMLKYFMCLVVGITSGVWIWSGKTVESWRRFTSRCCCRPRRGHKSGGAMAAGDYPEASAALTGRTGPPGPAATYHKQVSLSHV

Variants of: B1
Experiment: FZD5-dependent PM recruitment of DEP-GFP (cell scoring)
Details: with DEP_(414–507)-GFP, 100 cells scored in each case

Variant	screen value (parent: 88, read off a plot)	screen value (parent: 52, read off a plot)
chain 2 I327A	30 % of cells	–
chain 2 S503A	93 % of cells	50 % of cells
chain 2 P241A	20 % of cells	–
chain 2 W494A	21 % of cells	–
chain 2 T500A	36 % of cells	6 % of cells
chain 2 L420A	41 % of cells	–
chain 2 A326T	41 % of cells	–
chain 2 R510A	85 % of cells	49 % of cells
chain 2 Y240A	32 % of cells	8 % of cells
chain 2 K321A	92 % of cells	45 % of cells
chain 2 I403A	70 % of cells	34 % of cells
chain 2 K499A	62 % of cells	5 % of cells
chain 2 G323T	92 % of cells	56 % of cells
chain 2 T230A	12 % of cells	1 % of cells
chain 2 S509A	88 % of cells	52 % of cells
chain 2 V406A	86 % of cells	49 % of cells

Other lines, results leading:

screen value (parent: 88, read off a plot)	screen value (parent: 52, read off a plot)	Variant
37 % of cells	5 % of cells	chain 2 L417A
92 % of cells	50 % of cells	chain 2 E502A
96 % of cells	49 % of cells	chain 2 R506A
77 % of cells	12 % of cells	chain 2 R237A
56 % of cells	11 % of cells	chain 2 R239A
90 % of cells	60 % of cells	chain 2 S497A
24 % of cells	3 % of cells	chain 2 W504A
